Test results published in patent US20060193829A1.
Positions of bridges follow the written chain, without caps; N, C: chain ends. No end group written: not given here. *: point of attachment. NHNH2 = NN*

How the values were obtained:
[1] = biological target: REFACTO® (recombinant factor VIII-like polypeptide consisting of amino acids 1-743 and 1638 through 2332 of human factor VIII) (human) (UniProt P00451); assay: phage ELISA, phage isolate on factor VIII target, anti-M13-HRP
[2] = biological target: REFACTO® (recombinant factor VIII-like polypeptide consisting of amino acids 1-743 and 1638 through 2332 of human factor VIII) (human) (UniProt P00451); assay: phage ELISA, with target against without target
[3] = biological target: REFACTO® (recombinant factor VIII-like polypeptide consisting of amino acids 1-743 and 1638 through 2332 of human factor VIII) (human) (UniProt P00451); assay: affinity column, peptide on Toyopearl Formyl 650-M; target in fraction by activity assay
[4] = biological target: REFACTO® (recombinant factor VIII-like polypeptide consisting of amino acids 1-743 and 1638 through 2332 of human factor VIII) (human) (UniProt P00451); assay: affinity column, peptide on Toyopearl Formyl 650-M; target in fraction by RP-HPLC
[5] = biological target: REFACTO® (recombinant factor VIII-like polypeptide consisting of amino acids 1-743 and 1638 through 2332 of human factor VIII) (human) (UniProt P00451); assay: batch binding to peptide beads; target in fraction by sandwich ELISA
[6] = biological target: native human factor VIII (nhfVIII) (human) (UniProt P00451); assay: batch binding to regenerated peptide beads; target in fraction by sandwich ELISA
[7] = biological target: REFACTO® (recombinant factor VIII-like polypeptide consisting of amino acids 1-743 and 1638 through 2332 of human factor VIII) (human) (UniProt P00451); assay: as above

Chain of native human factor VIII (nhfVIII) (human) (P00451 20-2351): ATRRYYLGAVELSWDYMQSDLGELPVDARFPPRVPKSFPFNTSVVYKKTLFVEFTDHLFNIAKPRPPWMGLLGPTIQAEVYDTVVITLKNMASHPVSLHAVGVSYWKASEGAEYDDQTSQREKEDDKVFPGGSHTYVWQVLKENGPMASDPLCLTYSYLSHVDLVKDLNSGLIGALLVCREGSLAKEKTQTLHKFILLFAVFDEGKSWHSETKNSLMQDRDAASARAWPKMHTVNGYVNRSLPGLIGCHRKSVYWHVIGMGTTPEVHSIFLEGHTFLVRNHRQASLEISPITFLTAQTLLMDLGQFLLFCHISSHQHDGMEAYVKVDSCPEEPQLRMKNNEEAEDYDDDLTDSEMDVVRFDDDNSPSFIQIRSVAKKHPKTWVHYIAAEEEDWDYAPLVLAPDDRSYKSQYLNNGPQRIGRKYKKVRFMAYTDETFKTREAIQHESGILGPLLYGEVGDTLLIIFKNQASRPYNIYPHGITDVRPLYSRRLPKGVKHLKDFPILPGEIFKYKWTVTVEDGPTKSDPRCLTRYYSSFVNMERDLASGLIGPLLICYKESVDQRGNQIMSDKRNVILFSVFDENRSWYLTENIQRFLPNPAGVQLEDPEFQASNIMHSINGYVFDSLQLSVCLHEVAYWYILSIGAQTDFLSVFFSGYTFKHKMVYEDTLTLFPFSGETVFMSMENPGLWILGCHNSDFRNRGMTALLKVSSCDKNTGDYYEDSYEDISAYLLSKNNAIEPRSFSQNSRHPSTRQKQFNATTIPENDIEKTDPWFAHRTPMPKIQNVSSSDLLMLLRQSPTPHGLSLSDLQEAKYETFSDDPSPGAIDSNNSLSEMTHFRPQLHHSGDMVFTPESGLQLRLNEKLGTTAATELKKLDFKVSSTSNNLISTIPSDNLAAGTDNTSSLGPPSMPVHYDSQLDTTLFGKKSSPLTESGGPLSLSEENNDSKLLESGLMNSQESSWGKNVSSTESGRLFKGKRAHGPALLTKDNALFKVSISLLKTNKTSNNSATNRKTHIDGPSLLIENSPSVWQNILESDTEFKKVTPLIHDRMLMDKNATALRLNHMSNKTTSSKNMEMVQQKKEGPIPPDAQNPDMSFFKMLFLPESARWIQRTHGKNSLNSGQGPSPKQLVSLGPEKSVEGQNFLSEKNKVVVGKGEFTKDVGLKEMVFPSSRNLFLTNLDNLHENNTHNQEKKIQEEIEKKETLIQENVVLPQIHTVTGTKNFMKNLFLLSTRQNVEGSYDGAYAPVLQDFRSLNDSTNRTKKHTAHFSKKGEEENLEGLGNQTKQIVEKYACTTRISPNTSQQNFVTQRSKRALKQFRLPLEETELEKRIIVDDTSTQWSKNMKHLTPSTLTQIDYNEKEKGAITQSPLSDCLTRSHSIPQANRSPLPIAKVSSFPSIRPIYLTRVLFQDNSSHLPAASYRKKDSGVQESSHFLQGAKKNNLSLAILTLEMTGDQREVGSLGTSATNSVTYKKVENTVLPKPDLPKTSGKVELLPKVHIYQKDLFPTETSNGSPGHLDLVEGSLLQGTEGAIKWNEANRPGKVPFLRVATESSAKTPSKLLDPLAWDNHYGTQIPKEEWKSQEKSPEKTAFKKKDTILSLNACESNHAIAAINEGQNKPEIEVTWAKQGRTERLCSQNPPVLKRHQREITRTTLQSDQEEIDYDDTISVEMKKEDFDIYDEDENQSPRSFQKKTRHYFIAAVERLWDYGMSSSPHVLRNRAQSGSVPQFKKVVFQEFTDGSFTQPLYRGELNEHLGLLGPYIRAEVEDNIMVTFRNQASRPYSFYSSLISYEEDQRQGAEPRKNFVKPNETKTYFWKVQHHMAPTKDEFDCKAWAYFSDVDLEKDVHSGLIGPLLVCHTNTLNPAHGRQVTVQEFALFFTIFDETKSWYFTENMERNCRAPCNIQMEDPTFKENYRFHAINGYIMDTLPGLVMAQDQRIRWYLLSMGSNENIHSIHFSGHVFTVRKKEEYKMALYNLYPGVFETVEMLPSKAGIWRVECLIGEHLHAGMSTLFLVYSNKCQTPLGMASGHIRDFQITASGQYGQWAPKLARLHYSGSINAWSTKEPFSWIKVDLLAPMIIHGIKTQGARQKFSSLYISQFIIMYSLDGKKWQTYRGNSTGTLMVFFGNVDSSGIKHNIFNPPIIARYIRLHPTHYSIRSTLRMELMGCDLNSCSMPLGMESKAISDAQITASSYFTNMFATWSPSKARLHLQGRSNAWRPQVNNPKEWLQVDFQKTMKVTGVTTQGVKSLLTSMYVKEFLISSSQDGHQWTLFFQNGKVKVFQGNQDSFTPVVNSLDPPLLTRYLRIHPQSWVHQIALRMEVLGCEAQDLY
Chain of REFACTO® (recombinant factor VIII-like polypeptide consisting of amino acids 1-743 and 1638 through 2332 of human factor VIII) (human) (P00451 20-762, chain 1 of 2): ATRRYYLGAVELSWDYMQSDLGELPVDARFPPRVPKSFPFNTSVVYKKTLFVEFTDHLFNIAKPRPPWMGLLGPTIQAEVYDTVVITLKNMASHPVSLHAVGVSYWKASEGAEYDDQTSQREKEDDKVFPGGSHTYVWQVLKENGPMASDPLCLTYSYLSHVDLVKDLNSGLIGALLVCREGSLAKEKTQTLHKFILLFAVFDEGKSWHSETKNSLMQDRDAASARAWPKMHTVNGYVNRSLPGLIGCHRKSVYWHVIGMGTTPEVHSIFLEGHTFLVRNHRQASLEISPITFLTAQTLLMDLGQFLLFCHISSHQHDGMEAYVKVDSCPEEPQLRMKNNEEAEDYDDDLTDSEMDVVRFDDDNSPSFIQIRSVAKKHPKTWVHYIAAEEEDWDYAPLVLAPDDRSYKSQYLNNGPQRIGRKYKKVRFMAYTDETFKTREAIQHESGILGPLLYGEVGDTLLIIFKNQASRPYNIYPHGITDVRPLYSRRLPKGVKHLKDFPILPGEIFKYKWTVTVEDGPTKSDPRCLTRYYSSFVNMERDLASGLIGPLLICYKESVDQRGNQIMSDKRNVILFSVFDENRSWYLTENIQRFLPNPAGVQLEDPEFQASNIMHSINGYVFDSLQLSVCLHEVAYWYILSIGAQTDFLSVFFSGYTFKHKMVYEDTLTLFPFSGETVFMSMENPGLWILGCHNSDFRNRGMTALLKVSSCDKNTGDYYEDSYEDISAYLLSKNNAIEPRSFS
Chain of REFACTO® (recombinant factor VIII-like polypeptide consisting of amino acids 1-743 and 1638 through 2332 of human factor VIII) (human) (P00451 1657-2351, chain 2 of 2): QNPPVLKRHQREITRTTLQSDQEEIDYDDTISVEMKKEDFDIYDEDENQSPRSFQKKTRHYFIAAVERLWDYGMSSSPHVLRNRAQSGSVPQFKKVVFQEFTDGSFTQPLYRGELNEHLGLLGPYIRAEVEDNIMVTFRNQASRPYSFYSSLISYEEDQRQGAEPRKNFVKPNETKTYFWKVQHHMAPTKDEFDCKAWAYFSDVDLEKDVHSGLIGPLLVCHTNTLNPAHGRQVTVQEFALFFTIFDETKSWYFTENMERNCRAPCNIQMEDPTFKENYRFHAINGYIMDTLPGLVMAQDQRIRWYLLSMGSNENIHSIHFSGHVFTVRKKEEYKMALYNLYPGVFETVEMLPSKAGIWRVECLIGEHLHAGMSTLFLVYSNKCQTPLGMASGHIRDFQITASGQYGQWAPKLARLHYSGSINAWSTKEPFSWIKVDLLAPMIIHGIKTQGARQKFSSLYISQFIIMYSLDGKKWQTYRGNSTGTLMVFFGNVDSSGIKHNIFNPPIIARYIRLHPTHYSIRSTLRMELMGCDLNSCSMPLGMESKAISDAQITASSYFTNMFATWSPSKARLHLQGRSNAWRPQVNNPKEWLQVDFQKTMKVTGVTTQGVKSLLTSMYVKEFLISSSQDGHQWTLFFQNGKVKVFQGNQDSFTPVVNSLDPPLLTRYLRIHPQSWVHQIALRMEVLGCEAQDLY

B1: TN8 isolate 01 (SEQ ID NO: 18) (peptide)
peptide: HGCGAWFRPCHA
- ELISA signal [1]: 0.2 OD630

B2: TN9 isolate 02 (SEQ ID NO: 27) (peptide)
peptide: FCWVFPFNHCD
- ELISA signal [1]: 0.4 OD630
- R (ratio of the ELISA score with target present to the ELISA score without target) [2]: 8

B3: TN8 isolate 02 (SEQ ID NO: 13) (peptide)
peptide: HPCGSWFNPCAH
- ELISA signal [1]: 0.3 OD630
- R (ratio of the ELISA score with target present to the ELISA score without target) [2]: 8

B4: TN7 isolate A06 (peptide)
peptide: HSCGSWLFPCFA
- ELISA signal [1]: 0.5 OD630
- R (ratio of the ELISA score with target present to the ELISA score without target) [2]: 10

B5: TN9 isolate 09 (SEQ ID NO: 29) (peptide)
peptide: FCWVFPFQHCA
- ELISA signal [1]: 1.1 OD630
- R (ratio of the ELISA score with target present to the ELISA score without target) [2]: 24

B6: TN7 isolate C5/G10 (peptide)
peptide: RLCSWVSPCSA
- ELISA signal [1]: 0.5 OD630
- R (ratio of the ELISA score with target present to the ELISA score without target) [2]: 10

B7: TN9/1 isolate … (SEQ ID NO: 77) (peptide)
peptide: FCWVFQFRHCH
- R (ratio of the ELISA score with target present to the ELISA score without target) [2]: 8

B8: TN8 isolate 02 (SEQ ID NO: 14) (peptide)
peptide: HPCGSWFRPCFH
- ELISA signal [1]: 0.7 OD630
- R (ratio of the ELISA score with target present to the ELISA score without target) [2]: 16

B9: Affinity ligand CS-453 (peptide)
peptide: AEGTGDHPCGSWLRPCLHDPGPEGGGS-NHNH2
modifications: disulfide 9-16 (inferred)
- % recovery, Elution A [3]: 26.4%
- % recovery, Flow [3]: 0%
- % recovery, Elution A [4]: 43.2%
- % recovery, Elution B [4]: 0%
- % recovery, Flow [4]: 0%
- % recovery, pH2 [4]: 0%

B10: TN9 isolate 03 (SEQ ID NO: 26) (peptide)
peptide: FCWVFNFSHCS
- ELISA signal [1]: 1.1 OD630
- R (ratio of the ELISA score with target present to the ELISA score without target) [2]: 24

B11: TN8 isolate 10 (SEQ ID NO: 10) (peptide)
peptide: HPCGSWLRPCLH
- ELISA signal [1]: 1 OD630
- R (ratio of the ELISA score with target present to the ELISA score without target) [2]: 16

B12: TN8 isolate 01 (SEQ ID NO: 19) (peptide)
peptide: HPCGAWFNPCPR
- ELISA signal [1]: 0.2 OD630

B13: TN9 isolate 11 (SEQ ID NO: 32) (peptide)
peptide: FCHVFPFLHCD
- ELISA signal [1]: 0.2 OD630

B14: TN8 isolate 08 (SEQ ID NO: 20) (peptide)
peptide: HPCGAWLRPCYN
- ELISA signal [1]: 1 OD630
- R (ratio of the ELISA score with target present to the ELISA score without target) [2]: 20

B15: TN7 isolate D03 (peptide)
peptide: PHCNWLFPCSL
- ELISA signal [1]: 0.2 OD630

B16: TN8 isolate 12 (SEQ ID NO: 17) (peptide)
peptide: HLCFAWFRPCDA
- ELISA signal [1]: 0.4 OD630
- R (ratio of the ELISA score with target present to the ELISA score without target) [2]: 8

B17: TN8 isolate 04 (SEQ ID NO: 12) (peptide)
peptide: HPCGSWLHPCAA
- ELISA signal [1]: 0.3 OD630
- R (ratio of the ELISA score with target present to the ELISA score without target) [2]: 6

B18: TN9 isolate 01 (SEQ ID NO: 31) (peptide)
peptide: FCHVFNFVHCS
- ELISA signal [1]: 0.5 OD630
- R (ratio of the ELISA score with target present to the ELISA score without target) [2]: 8

B19: TN8 isolate 11/G10 (SEQ ID NO: 21) (peptide)
peptide: HRCGSWLHPCLA
- ELISA signal [1]: 0.3 OD630
- R (ratio of the ELISA score with target present to the ELISA score without target) [2]: 6

B20: TN9/1 isolate … (SEQ ID NO: 71) (peptide)
peptide: FCWVFAFDHCH
modifications: not fully specified (bridges); cysteine pairing not given here
- R (ratio of the ELISA score with target present to the ELISA score without target) [2]: 24

B21: TN9 isolate 02 (SEQ ID NO: 23) (peptide)
peptide: FCWVHPFAHCL
- ELISA signal [1]: 0.2 OD630

B22: TN7 isolate A09 (peptide)
peptide: FHCIGVWFCLH
- ELISA signal [1]: 0.1 OD630

B23: TN9 isolate 06 (SEQ ID NO: 30) (peptide)
peptide: FCWVFPFHHCF
- ELISA signal [1]: 0.3 OD630
- R (ratio of the ELISA score with target present to the ELISA score without target) [2]: 6

B24: Affinity ligand CS-458 (peptide)
peptide: AEGTGDFCWVFAFDHCHDPGPEGGGS-NHNH2
modifications: disulfide 8-16 (inferred)
- % of Input Recovered in Eluate [5]: 47%
- % of Input Recovered in Unbound [5]: 20%
- % of Input Recovered in Wash [5]: 10%
- % recovery, Elution A [3]: 55.6%
- % recovery, Flow [3]: 1.4%
- % of Total Recovered in Eluate [6]: 39%
- % of Total Recovered in Unbound [6]: 48%
- % of Total Recovered in Wash [6]: 13%
- % of Total Recovered in Eluate [7]: 27%
- % of Total Recovered in Unbound [7]: 59%
- % of Total Recovered in Wash [7]: 14%
- % recovery, Elution A [4]: 54.3%
- % recovery, Elution B [4]: 0%
- % recovery, Flow [4]: 1.8%
- % recovery, pH2 [4]: 0%

B25: Affinity ligand CS-459 (peptide)
peptide: AEGTGDFCWVFPFQHCADPGPEGGGS-NHNH2
modifications: disulfide 8-16 (inferred)
- % recovery, Elution A [3]: 31.2%
- % recovery, Flow [3]: 6.4%
- % recovery, Elution A [4]: 42.1%
- % recovery, Elution B [4]: 0%
- % recovery, Flow [4]: 1.6%
- % recovery, pH2 [4]: 0%

B26: TN9 isolate 01 (SEQ ID NO: 24) (peptide)
peptide: FCHVFHFSHCD
- ELISA signal [1]: 0.2 OD630

B27: Affinity ligand CS-460 (peptide)
peptide: AEGTGDFCWVFPFHHCFDPGPEGGGS-NHNH2
modifications: disulfide 8-16 (inferred)
- % recovery, Elution A [3]: 0%
- % recovery, Flow [3]: 28.4%
- % recovery, Elution A [4]: 28.8%
- % recovery, Elution B [4]: 0%
- % recovery, Flow [4]: 24.6%
- % recovery, pH2 [4]: 0%

B28: TN9/1 isolate … (SEQ ID NO: 75) (peptide)
peptide: FCWVFNWVHCD
- R (ratio of the ELISA score with target present to the ELISA score without target) [2]: 14

B29: TN7 isolate D04 (peptide)
peptide: RLCSWISPCSA
- ELISA signal [1]: 0.3 OD630
- R (ratio of the ELISA score with target present to the ELISA score without target) [2]: 6

B30: TN8 isolate 02 (SEQ ID NO: 16) (peptide)
peptide: HLCGAWFRPCDA
- ELISA signal [1]: 0.4 OD630
- R (ratio of the ELISA score with target present to the ELISA score without target) [2]: 6

B31: TN7 isolate A08 (peptide)
peptide: FGCSWLFPCPF
- ELISA signal [1]: 0.4 OD630
- R (ratio of the ELISA score with target present to the ELISA score without target) [2]: 8

B32: TN8 isolate 05 (SEQ ID NO: 11) (peptide)
peptide: RGCGSWLRPCLD
- ELISA signal [1]: 0.2 OD630

B33: TN8 isolate 07 (SEQ ID NO: 15) (peptide)
peptide: HACGSWFRPCHA
- ELISA signal [1]: 0.4 OD630
- R (ratio of the ELISA score with target present to the ELISA score without target) [2]: 6

B34: Affinity ligand CS-456 (peptide)
peptide: AEGTGDFGCSWLFPCPFDPGPEGGGS-NHNH2
modifications: disulfide 9-15 (inferred)
- % of Input Recovered in Eluate [5]: 24%
- % of Input Recovered in Unbound [5]: 47%
- % of Input Recovered in Wash [5]: 20%
- % recovery, Elution A [3]: 43%
- % recovery, Flow [3]: 4.8%
- % of Total Recovered in Eluate [6]: 16%
- % of Total Recovered in Unbound [6]: 70%
- % of Total Recovered in Wash [6]: 14%
- % recovery, Elution A [4]: 44.8%
- % recovery, Elution B [4]: 0%
- % recovery, Flow [4]: 3.4%
- % recovery, pH2 [4]: 0%

B35: Affinity ligand CS-455 (peptide)
peptide: AEGTGDFHCIGVWFCLHDPGPEGGGS-NHNH2
modifications: disulfide 9-15 (inferred)
- % recovery, Elution A [3]: 1.3%
- % recovery, Flow [3]: 61.6%
- % recovery, Elution A [4]: 1.4%
- % recovery, Elution B [4]: 0%
- % recovery, Flow [4]: 65.8%
- % recovery, pH2 [4]: 0%

B36: TN9 isolate 12 (SEQ ID NO: 28) (peptide)
peptide: FCWVFPFNHCS
- ELISA signal [1]: 1 OD630
- R (ratio of the ELISA score with target present to the ELISA score without target) [2]: 18

B37: Affinity ligand CS-454 (peptide)
peptide: AEGTGDHLCGAWFRPCDADPGPEGGGS-NHNH2
modifications: disulfide 9-16 (inferred)
- % of Input Recovered in Eluate [5]: 49%
- % of Input Recovered in Unbound [5]: 24%
- % of Input Recovered in Wash [5]: 12%
- % recovery, Elution A [3]: 42.4%
- % recovery, Flow [3]: 2.2%
- % of Total Recovered in Eluate [6]: 21%
- % of Total Recovered in Unbound [6]: 67%
- % of Total Recovered in Wash [6]: 12%
- % recovery, Elution A [4]: 45.1%
- % recovery, Elution B [4]: 0%
- % recovery, Flow [4]: 2.5%
- % recovery, pH2 [4]: 0%
